Values of other authors in publication PMC2786309 (Bioconjugate chemistry, 2009).

Assays:
[1] = system: MC1 receptor present on melanoma cells; details: statement in method text, no reference given
[2] = system: B16/F1 melanoma-bearing C57 mice; details: mouse, in vivo

NDP-MSH
Affinity for the MC1 receptor [1]: picomolar affinity

^111In-DOTA-Gly-Glu-c[Lys-Nle-Glu-His-DPhe-Arg-Trp-Gly-Arg-Pro-Val-Asp] (FRWGRPVD; not fully specified; 111In-DOTA, Gly-Glu-Lys-Nle-Glu-His N-term, cyclic; printed: Phe-Arg-Trp-Gly-Arg-Pro-Val-Asp) [^111In-DOTA-GlyGlu-CycMSH]
Renal uptake reduction compared to 111In-DOTA-CycMSH [2]: 44% | Melanoma uptake ([2]; 2 h): 10.40 ± 1.40 % ID/g

^111In-DOTA-[β-Ala^3, Nle^4, Asp^5, D-Phe^7, Lys^10]-α-MSH3-10 [^111In-DOTA-MSHoct]
Tumor uptake ([2]; 4 h): 4.31 ± 0.30 % ID/g
